Measured values taken from patent publication US7550425B2, “Diuretic peptide conjugates” (Zealand Pharma A/S, priority 2000, dated 2009).
Like-named read-outs stand apart in the source and are kept apart here. Peptide text beside a SMILES is read from it.

B1: Compound 1 Ac-Arg-Tyr-Tyr-Arg-Trp-Lys-Lys-Lys-Lys-Lys-Lys-Lys-NH2 (peptide)
peptide: Ac-RYYRWKKKKKKK-NH2
modifications: also: trifluoroacetate salt
notes: Synthetic peptide conjugate; the primary product is the trifluoroacetate salt; also called Compound I
B2: Compound CE1 Ac-Arg-Tyr-Tyr-Arg-Trp-Lys-NH2 (peptide)
peptide: Ac-RYYRWK-NH2
notes: Unconjugated comparison hexapeptide; also called Ac-RYYRWK-NH2

Experiments:
human ORL1 receptor [1] = biological target: T1, human ORL1 receptor (human, UniProt P41146 1-370); test: cell-based or functional assay
mouse vas deferens = test: Mouse vas deferens assay: inhibition of electrically-induced contraction; conditions: cumulative addition; data not shown
Description: The compounds of the present invention are pharmacologically active, e.g. as nociceptin agonists or partial agonists, and a useful method of showing activity is described by Hughes J., Kosterlitz H. W., Leslie F. M.: Effect of morphine on adrenergic transmission in the mouse vas deferens. Assessment of agonist and antagonist potencies of narcotic analgesics^[4]. The isolated electrically stimulated mouse vas deferens preparation has been widely used to evaluate the functional pharmacological actions of opioid agonists and antagonists in vitro^[5].
(§1) The vas deferens from male NMRI albino mice weighing 30-40 g were placed in a SCHULER organ bath Type 809, Hugo Sachs Elektronik, Germany, and perfused with a 37° C., modified Krebs solution (NaCl 6,9 g/L, KCl 0.35 g/L, KH2PO4 0.16 g/L, NaHCO3 2.1 g/L, Glucose H2O 2.0 g/L, CaCl2 2.52 mL/L). The solution was gassed with carbogen (95% O2 and 5% CO2) throughout the experiment. The tissue was electrically stimulated through two silver electrodes directly in the organ bath using a HSE Stimulator I Type 215. Stimulation of the tissue was performed by applying a supramaximal voltage (15 Volts) in trains of 10 square pulses every 60 s, each of 1 ms duration with a frequency of […]. Concentration-response curves were performed by adding test substances that relax mouse vas deferens smooth muscles cumulatively to the organ baths. The test substances used in the assay were nociceptin in an isotonic saline solution, Compound 1 (as the trifluoroacetate in an isotonic saline solution), Compound 2 (as the trifluoroacetate in an isotonic saline solution), and the hexapeptide Ac-RYYRWK-NH2 (SEQ ID NO: 1) (as the trifluoroacetate in an isotonic saline solution).

hORL1 receptor = hORL1 receptor (Homo sapiens, UniProt P41146); test: Binding to human ORL1 receptor expressed in CHO cells; parameters: expressed in transfected cells; host or cells: CHO
[2] = tested on: conscious Sprague Dawley rats; type: in vivo, rat
Procedure: In the conscious rat model, the animal is chronically instrumented with catheters in the urinary bladder, the femoral artery, and the femoral vein. The animal receives a continuous i.v. infusion with isotonic saline, 50 μl/min. Urine is collected in vials in consequtive urine collection periods of 10 min each. After two control periods, the test compound is administered and fractionated urine collections (10 min periods) are continued for at least two hours. Urinary concentrations of sodium and potassium are determined by flame photometry (Instrumentation Laboratory 943) using caesium as internal standard.
The diuretic effect of the peptide conjugates of the invention has been tested in conscious rats, where Compound 1 elicits a powerful and sustained diuretic response. Cardiovascular and renal responses produced by i.v. infusion of nociceptin (Phoenix Pharmaceuticals) and Compound 1 have been studied in conscious Sprague Dawley rats. The results are shown in FIGS. 2 to 8 wherein HR is heart rate, MAP is mean arterial pressure, V is urine flow rate, UNaV is urinary excretion rate of sodium, RSNA is renal sympathetic nerve activity expressed as % of the control level, Cosm is the osmolar clearance, and CH2O is free water clearance.
Furthermore, the effects of i.v. bolus administration of nociceptin (30 and 100 nmol/kg, Phoenix Pharmaceuticals) and nociceptin-NH2 (30 nmol/kg) on heart rate, arterial pressure and RSNA were studied in groups of 6 conscious Sprague-Dawley rats.
[…] After stabilization of urine flow rate and urinary sodium excretion, urine was collected during a 20-min control period. After this, the i.v. bolus injection was given or the i.v. infusate was switched to a solution of isotonic saline containing Compound 1 (i.v. infusion experiments). From the time of drug administration, experimental urine samples (10-min consecutive periods) were taken for 80 min.
One hour prior to the start of each experiment a food pellet (standard rodent chow) was placed within access to the rat though a hole in the rat holder. The number and time of feeding responses (i.e., times in which the rat began to eat the food pellet) was recorded before, and after drug administration. If a positive feeding response was observed, the pellet was removed from the restrainer to prevent feeding-induced alterations in heart rate and/or mean arterial pressure. At 10-min intervals, the food pellet was presented to the rat to determine the duration of the feeding response.

[3] = tested on: nociceptin-induced smooth muscle relaxation in mouse vas deferens; test: Mouse vas deferens assay: antagonism of nociceptin-induced relaxation (Schild pA2); conditions: Schild equation; antagonism of nociceptin-induced relaxation; n = 4
Procedure: as §1
The effects of Ac-RYYRWK-NH2 (SEQ ID NO: 1) and Compound 1 on nociceptin-induced relaxation in the mouse vas deferens assay were also tested. […] Using the Schild equation ^[7], the pA2 values which indicates affinity of a compound as an antagonist were calculated.

[4] = In vitro stability in heparin stabilised mouse plasma; type: in vitro ADME; conditions: heparinised mouse plasma, 37° C., read-out: half-life t½ of degradation
Procedure: Degradation of peptides is almost exclusively seen in the presence of enzymes, e.g. in the bloodstream. An important feature of a putative drug is whether it is quickly degraded in vivo or whether it is able to conduct its effects over a longer period of time. To be able to examine the stability of the peptide conjugates of the present invention degradation was tested in heparin stabilised mouse plasma (obtained from Harlan Seralab, UK).
The stability studies were run in triplicate. 100 μL of a 1 mg/mL solution of the test compound (peptide conjugate) was added to an Eppendorf tube, containing 900 μL plasma, incubated at 37° C. Immediately after addition, a sample of 100 μL was removed and added to an Eppendorf tube, containing 10 μL of extraction solution (50% TFA (trifluoroacetic acid) in MeCN, v/v). This sample constitutes t=0. […] The samples are centrifuged at 20,000×g, and the supernatant was transferred to vials and analysed by high-performance liquid chromatography (HPLC).
The analysis was performed on a HP1100 HPLC with a quaternary pump. The column used was a Vydac 201SP5215, and the apparatus comprises an autosampler, a column oven, a variable UV detector and a fluorescence detector. […] These values were transferred to Microsoft Excel, where half-lives (t½) and rate constant (kobs) for Ac-RYYRWK-NH2 (SEQ ID NO: 1) and Compound 1 were determined by fitting to the equation.

[5] = In vitro stability in heparinised human plasma; type: in vitro ADME
Procedure: In addition, the degradation of Compound 1 of the invention has been studied in heparinised human plama.
The stability of peptides is analysed in human plasma. The peptides are incubated at 37° C. in plasma and samples taken at approx. 8 regular intervals between t=0 and t=390 min for Compound 1 and nociceptin-NH2, and at 9 intervals between t=0 and t=32 min for Compound CE1 are analysed by HPLC. […] This is done by subsequent injections of the drug, plasma, and a co-injection with the drug and the plasma, followed by optimisation of the LC method parameters until a satisfactory separation is obtained. Three parallel experiments are performed for each plasma type. 100 μl of peptide is mixed with 900 μl plasma at t=0 and incubated at 37° C. (drug-plasma mixture conc. 0.1 mg/ml). Samples of 100 μl of the drug-plasma mixture are removed at appropriate intervals and the degradation stopped by precipitation of the sample with 10 μl MeCN:TFA 50:50 v/v. A control plasma sample without the drug treated in the same manner is also taken. The plasma samples are centrifuged for 15 min. at 12,000 rpm (Eppendorf centrifuge) at ambient temperature. The resulting supernatant solution is transferred to 300 μl HP autosamler vials and analyzed by HPLC. HPLC analysis are performed as follows:
Ac-RYYRWK-NH2 (SEQ ID NO: 1) and Compound 1
The samples are analysed in the following order: blank, the peptide at 0.1 mg/mL, the plasma without the peptide, the three parallel samples for t=0, the three parallel samples for t=5 min. the three parallel samples for t=60 min. etc. And finally the three parallel samples for t=0 are repeated to make sure that there have been no degradation or other failure during the analyses. The sample concentrations (peak height in mAU) are plotted vs. time and fitted to a function describing a mono exponential decay (Excel). The half-lives of the peptides in plasma are presented in Table 7 as mean (n=3)±standard deviation.

human ORL1 receptor [6] = biological target: T1, human ORL1 receptor; test: cell-based or functional assay; remark: listed apart in the source
human ORL1 receptor [7] = biological target: T1, human ORL1 receptor; test: cell-based or functional assay; remark: listed apart in the source
human ORL1 receptor [8] = biological target: T1, human ORL1 receptor; test: binding to hORL1 receptor expressed in CHO cells, one experiment
human ORL1 receptor [9] = biological target: T1, human ORL1 receptor; test: displacement of [3H]-labeled nociceptin, HEK293 cells transfected with the human ORL1 receptor

T1 sequence (P41146 whole entry): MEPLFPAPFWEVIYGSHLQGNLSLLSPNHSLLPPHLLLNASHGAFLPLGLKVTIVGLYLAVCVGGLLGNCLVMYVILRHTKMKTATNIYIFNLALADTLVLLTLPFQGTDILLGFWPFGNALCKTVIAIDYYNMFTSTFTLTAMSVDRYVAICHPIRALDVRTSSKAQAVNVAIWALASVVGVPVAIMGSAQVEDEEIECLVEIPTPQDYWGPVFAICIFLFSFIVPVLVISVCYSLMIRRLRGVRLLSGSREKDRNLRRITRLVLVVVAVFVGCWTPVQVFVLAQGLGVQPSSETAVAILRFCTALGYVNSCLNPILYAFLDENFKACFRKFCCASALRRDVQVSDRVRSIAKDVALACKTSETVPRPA
hORL1 receptor, sequence (P41146 whole entry): as above

Molecule	Efficacy EC50 (nM), inhibition of forskolin-induced cAMP formation (human ORL1 receptor [7]) [nM]	IC50 (human ORL1 receptor [8]) [nM]	further results
Compound 8 Ac-D-Arg-D-Tyr-D-Tyr-D-Arg-D-Trp-D-Lys-D-Lys-D-Lys-D-Lys-D-Lys-D-Lys-D-Lys-NH2 (peptide)			Efficacy EC50 (nM), inhibition of forskolin-induced cAMP formation (human ORL1 receptor [1]): 59 nM
Ac-KKKKKKRYYRWK-NH2 [Compound 2]			potency order for inhibition of electrically-induced contraction of the mouse vas deferens (mouse vas deferens): nociceptin>Compound 1=Compound 2>>Ac-RYYRWK-NH2
CC(=O)N[C@H](CCCCN)C(=O)N[C@H](CCCCN)C(=O)N[C@H](CCCCN)C(=O)N[C@H](CCCCN)C(=O)N[C@H](CCCCN)C(=O)N[C@H](CCCCN)C(=O)N[C@H](CCCCN)C(=O)N[C@H](Cc1c[nH]c2ccccc12)C(=O)N[C@H](CCCNC(=N)N)C(=O)N[C@H](Cc1ccc(O)cc1)C(=O)N[C@H](Cc1ccc(O)cc1)C(=O)N[C@H](CCCNC(=N)N)C(N)=O [Compound 7, Ac-KKKKKKKWRYYR-NH2 (all D)] (HELM PEPTIDE1{[ac].[dK].[dK].[dK].[dK].[dK].[dK].[dK].[dW].[dR].[dY].[dY].[dR].[am]}$$$$V2.0)			IC50 (hORL1 receptor): > 100 nM
CC(C)C[C@H](NC(=O)[C@H](CCCCN)NC(=O)[C@H](CCCN=C(N)N)NC(=O)[C@H](C)NC(=O)[C@H](CO)NC(=O)[C@H](CCCCN)NC(=O)[C@H](CCCN=C(N)N)NC(=O)[C@H](C)NC(=O)CNC(=O)[C@@H](NC(=O)[C@H](Cc1ccccc1)NC(=O)CNC(=O)CNC(=O)[C@@H](N)Cc1ccccc1)[C@@H](C)O)C(=O)N[C@@H](C)C(=O)N[C@@H](CC(N)=O)C(=O)N[C@@H](CCC(N)=O)C(=O)O [nociceptin, reference compound]			heart rate, arterial pressure and RSNA ([2]; i.v. bolus 30 and 100 nmol/kg, data not shown): rapid bradycardia, a hypotensive response and initial RSNA suppression; MAP response ([2]; i.v. infusion 11 nmol/kg/min, FIG. 2): significantly decreases MAP
Ac-RYYRWK-NH2 [Compound CE1, Ac-Arg-Tyr-Tyr-Arg-Trp-Lys-NH2, reference compound]			potency order for inhibition of electrically-induced contraction of the mouse vas deferens (mouse vas deferens): nociceptin>Compound 1=Compound 2>>Ac-RYYRWK-NH2; pA2 value [3]: 7.8 (n = 4); half-life at 0.1 mg/mL [4]: 2 to 5 min; half-life at 0.1 mg/ml ([5]; 37° C., mean (n=3) +/− deviation, read-out: T1/2 in min (degradation in human heparinised plasma)): 50.7 min; half-life at 0.1 mg/ml ([5]; read-out: half life in plasma): < 60 min
B1	0.58	0.32	inhibition of forskoline-induced formation of cAMP, EC50 (human ORL1 receptor [6]): 0.54 nM; inhibition of forskoline-induced formation of cAMP, relative maximum relative to nociceptin (human ORL1 receptor [6]): 92%; Ki (human ORL1 receptor [9]): 0.26 nM
Ac-KYYRWKKKKKKK-NH2 [Compound 9 Ac-Lys-Tyr-Tyr-Arg-Trp-Lys-Lys-Lys-Lys-Lys-Lys-Lys-NH2]	0.035	3.7	
Ac-RYYRIKKKKKKK-NH2 [Compound 10 Ac-Arg-Tyr-Tyr-Arg-Ile-Lys-Lys-Lys-Lys-Lys-Lys-Lys-NH2]		0.51	
Ac-RYYRWKAKKKKK-NH2 [Compound 11 Ac-Arg-Tyr-Tyr-Arg-Trp-Lys-Ala-Lys-Lys-Lys-Lys-Lys-NH2]		0.27	
B2	0.41	0.31	
H-NEEEEERYYRWKKKKKKK-NH2 [Compound 3 H-Asn-Glu-Glu-Glu-Glu-Glu-Arg-Tyr-Tyr-Arg-Trp-Lys-Lys-Lys-Lys-Lys-Lys-Lys-NH2]	83	235	
Ac-RYNRWKKKKKKK-NH2 [Compound 4 Ac-Arg-Tyr-Asn-Arg-Trp-Lys-Lys-Lys-Lys-Lys-Lys-Lys-NH2]	91		
Ac-KKKKKKKWRYYR-NH2 [Compound 6 Ac-Lys-Lys-Lys-Lys-Lys-Lys-Lys-Trp-Arg-Tyr-Tyr-Arg-NH2]	135	115	
Ac-RYYRWKKKKKK-NH2 [Compound 12 Ac-Arg-Tyr-Tyr-Arg-Trp-Lys-Lys-Lys-Lys-Lys-Lys-NH2]		0.15	
